Laboratory results: patent US20040208880A1 (University of Texas, published 2004)

T1: estrogen receptor alpha (ER), full-length (UniProt P03372 1-595)
T1 construct: Used as in vitro translated 35S-labeled full-length ER and as the endogenous ER of human cell lines (Ishikawa, MCF-7 derivatives); also called ERα; ERá
T1 sequence (looked up): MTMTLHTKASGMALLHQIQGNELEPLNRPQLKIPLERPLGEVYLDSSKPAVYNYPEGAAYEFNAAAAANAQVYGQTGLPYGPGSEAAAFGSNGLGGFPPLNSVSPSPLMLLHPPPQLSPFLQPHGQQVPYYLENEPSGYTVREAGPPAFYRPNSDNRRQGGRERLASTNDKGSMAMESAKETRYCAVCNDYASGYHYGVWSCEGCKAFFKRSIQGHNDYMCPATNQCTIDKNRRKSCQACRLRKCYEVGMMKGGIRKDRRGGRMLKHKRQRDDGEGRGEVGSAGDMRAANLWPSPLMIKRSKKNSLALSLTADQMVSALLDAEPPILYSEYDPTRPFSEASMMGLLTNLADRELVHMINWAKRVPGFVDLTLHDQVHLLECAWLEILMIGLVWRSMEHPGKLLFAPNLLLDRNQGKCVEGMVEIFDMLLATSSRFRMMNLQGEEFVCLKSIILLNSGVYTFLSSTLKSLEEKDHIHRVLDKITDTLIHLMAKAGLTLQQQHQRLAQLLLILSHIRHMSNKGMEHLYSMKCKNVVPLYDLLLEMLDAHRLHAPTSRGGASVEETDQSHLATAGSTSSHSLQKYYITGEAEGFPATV


Legend:
[1] = molecular target: T2, dynein light chain-1/protein inhibitor of nitric oxide synthase (DLC1/PIN), amino acids 1-89 (human, UniProt P63167 1-89); assay: GST pull-down with in vitro translated DLC1/PIN
T2 construct: Used both as in vitro translated 35S-labeled protein (aa 1-89) and as the endogenous protein of human cell lines (MCF-7, Ishikawa)

[2] = molecular target: T2, dynein light chain-1/protein inhibitor …; assay: immunoprecipitation with HA antibody from Tet on-HA-Pak1-T423E MCF-7 cells, immunoblot
[3] = molecular target: T1, estrogen receptor alpha (ER), …; assay: immunoprecipitation with anti-Pak1 Ab, immunoblot with ERα Ab
[4] = molecular target: T1, estrogen receptor alpha (ER), …; assay: GST pull-down with in vitro translated 35S-ER

| Binder | binding result [1] | other results |
| --- | --- | --- |
| GST-Pak1 N-terminal domain (amino acids 1-132) (other, not shown: glutathione-S-transferase (GST) fusion partner) MSNNGLDIQDKPPAPPMRNTSTMIGVGSKDAGTLNHGSKPLPPNPEEKKKKDRFYRSILPGDKTNKKKEKERPEISLPSDFEHTIHVGFDAVTGEFTGMPEQWARLLQTSNITKSEQKKNPQAVLDVLEFYN | no binding | – |
| HA-tagged T423E Pak1 (catalytically active Pak1) (enzyme, Expressed in MCF-7 cells under a Tet-on promoter; also called HA-Pak1-T423E; not shown: HA tag) MSNNGLDIQDKPPAPPMRNTSTMIGVGSKDAGTLNHGSKPLPPNPEEKKKKDRFYRSILPGDKTNKKKEKERPEISLPSDFEHTIHVGFDAVTGEFTGMPEQWARLLQTSNITKSEQKKNPQAVLDVLEFYNSKKTSNSQKYMSFTDKSAEDYNSSNALNVKAVSETPAVPPVSEDEDDDDDDATPPPVIAPRPEHTKSVYTRSVIEPLPVTPTRDVATSPISPTENNTTPPDALTRNTEKQKKKPKMSDEEILEKLRSIVSVGDPKKKYTRFEKIGQGASGTVYTAMDVATGQEVAIKQMNLQQQPKKELIINEILVMRENKNPNIVNYLDSYLVGDELWVVMEYLAGGSLTDVVTETCMDEGQIAAVCRECLQALEFLHSNQVIHRDIKSDNILLGMDGSVKLTDFGFCAQITPEQSKRSEMVGTPYWMAPEVVTRKAYGPKVDIWSLGIMAIEMIEGEPPYLNENPLRALYLIATNGTPELQNPEKLSAIFRDFLNRCLDMDVEKRGSAKELLQHQFLKIAKPLSSLTPLIAAAKEATKNNH | – | binding result [2]: binds |
| p21-activated protein kinase 1 (Pak1), full-length, amino acids 1-545 (enzyme, Used both as in vitro translated 35S-labeled full-length protein and as the endogenous protein of human cell lines) MSNNGLDIQDKPPAPPMRNTSTMIGVGSKDAGTLNHGSKPLPPNPEEKKKKDRFYRSILPGDKTNKKKEKERPEISLPSDFEHTIHVGFDAVTGEFTGMPEQWARLLQTSNITKSEQKKNPQAVLDVLEFYNSKKTSNSQKYMSFTDKSAEDYNSSNALNVKAVSETPAVPPVSEDEDDDDDDATPPPVIAPRPEHTKSVYTRSVIEPLPVTPTRDVATSPISPTENNTTPPDALTRNTEKQKKKPKMSDEEILEKLRSIVSVGDPKKKYTRFEKIGQGASGTVYTAMDVATGQEVAIKQMNLQQQPKKELIINEILVMRENKNPNIVNYLDSYLVGDELWVVMEYLAGGSLTDVVTETCMDEGQIAAVCRECLQALEFLHSNQVIHRDIKSDNILLGMDGSVKLTDFGFCAQITPEQSKRSTMVGTPYWMAPEVVTRKAYGPKVDIWSLGIMAIEMIEGEPPYLNENPLRALYLIATNGTPELQNPEKLSAIFRDFLNRCLDMDVEKRGSAKELLQHQFLKIAKPLSSLTPLIAAAKEATKNNH | – | binding result [3]: binds |
| GST-Pak1 Cdc42/Rac-interacting (CRIB) domain (other, not shown: glutathione-S-transferase (GST) fusion partner) ISLPSDFEHTIHVGFDAVTGEFTGMPEQWARLLQTSNITKSEQKKNPQAVLDVLEFYNSKKTSNSQKYMSFTDKS | no binding | – |
| GST-DLC1 deletion construct lacking the C-terminal amino acids 67-89 (other, not shown: GST fusion partner at the N end and any linker to it) MCDRKAVIKNADMSEEMQQDSVECATQALEKYNIEKDIAAHIKKEFDKKYNPTWHCIVGRNFGSYV | – | binding result [4]: no binding |
| GST-Pak1 auto inhibitory domain (other, not shown: glutathione-S-transferase (GST) fusion partner) RFYRSILPGDKTNKKKEKERPEISLPSDFEHTIHVGFDAVTGEFTGMPEQWARLLQTSNITKSEQKKNPQAVLDVLEFYN | no binding | – |
